Laboratory results from the supplement of paper PMC10065799, “High-throughput profiling of sequence recognition by tyrosine kinases and SH2 domains using bacterial peptide display” (eLife, 2023).

System: c-Src
Experiment: phosphorylation enrichment, bacterial display (enrichment ratio); higher = better substrate or ligand; peptides without Tyr show the background
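Further: 11-residue human phosphosite peptides and single-mutation variants displayed on the E. coli surface, counted by deep sequencing, each peptide's frequency after selection divided by its frequency in the unselected input library; frequency after pTyr selection over input frequency; kinase dosed for 20-30% of maximal phosphorylation in three min.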

In order of falling phosphorylation enrichment:
1. DYYDLYGGEKF [PTPN11_Y66]  4.69
2. MSGDVYSTDYY [NTRK2_Y702_R699G]  4.64
3. NTGDFYDLFGG [PTPN11_Y63_YF]  4.45
4. SVEELYAIPPD [PEAK1_Y797]  3.28
5. LNPLIYTLKNA [OR4C46_Y285]  3.03
6. RGDTVYTVNCM [KBTBD13_Y404_R408C]  2.45
7. LDFPEYNGVDR [CASQ1_Y43_D44N]  2.17
8. ARRHPYFYAPE [ALB_Y172]  0.972
9. PLYRKYWPNHI [GREB1L_Y1560]  0.882
10. SWSTSYSGYRC [NKAPL_Y91_Y96C]  0.848
11. TEFSQYMRRKN [MAX_Y73_I71S_YF]  0.735
12. DENCFYTRAAS [RPS19_Y54_W52C]  0.722
13. LHSEAYLKFNE [PBRM1_Y1610_I1614N_YF]  0.707
14. YPLELYERVRM [PRKCG_Y312]  0.699
15. FADIAYNFRHG [PAH_Y166_YF]  0.532
16. SSWPDYVRPLP [HSPB1_Y54_G53D]  0.475
17. CSTIHYNFMCN [TP53_Y234_T230S_YF]  0.468
18. TKDTFHKQPMF [GBA_Y451_Y451H]  0.459
19. EDNPEYMRLRN [ADD2_Y31_D28N]  0.459
20. QMQLKYSQSDL [SMC1A_Y714_R711Q]  0.457
21. ATHRSYDSDNP [MMUT_Y146_G145S]  0.447
22. TYVKSYTIHYS [F5_Y2153_M2148T]  0.44
23. KNSFKYFMSDD [ATRX_Y203_C200S_YF]  0.425
24. SKNSKYNAEST [PSEN1_Y315]  0.425
25. GIPIQYPIISE [NOG_Y222_W217G]  0.409
26. ENRKFYMDLKE [PURA_Y156_YF]  0.375
27. HRGYLYLAIEY [TEK_Y899]  0.375
28. GNLQENLTRHV [TGFBR2_Y336_Y336N]  0.337
29. ERKQTYGSCRK [LACTB_Y473]  0.334

System: AncSZ
Experiment: as above

In order of falling phosphorylation enrichment:
1. SSWPDYVRPLP [HSPB1_Y54_G53D]  4.98
2. SVEELYAIPPD [PEAK1_Y797]  3.92
3. DYYDLYGGEKF [PTPN11_Y66]  2.92
4. LDFPEYNGVDR [CASQ1_Y43_D44N]  2.84
5. MSGDVYSTDYY [NTRK2_Y702_R699G]  1.99
6. LHSEAYLKFNE [PBRM1_Y1610_I1614N_YF]  1.53
7. PLYRKYWPNHI [GREB1L_Y1560]  1.48
8. TYVKSYTIHYS [F5_Y2153_M2148T]  1.27
9. HRGYLYLAIEY [TEK_Y899]  1.23
10. NTGDFYDLFGG [PTPN11_Y63_YF]  1.23
11. CSTIHYNFMCN [TP53_Y234_T230S_YF]  1.2
12. YPLELYERVRM [PRKCG_Y312]  1.19
13. ATHRSYDSDNP [MMUT_Y146_G145S]  1.13
14. EDNPEYMRLRN [ADD2_Y31_D28N]  1.09
15. DENCFYTRAAS [RPS19_Y54_W52C]  1
16. QMQLKYSQSDL [SMC1A_Y714_R711Q]  0.973
17. SWSTSYSGYRC [NKAPL_Y91_Y96C]  0.944
18. RGDTVYTVNCM [KBTBD13_Y404_R408C]  0.937
19. ENRKFYMDLKE [PURA_Y156_YF]  0.917
20. ARRHPYFYAPE [ALB_Y172]  0.883
21. GIPIQYPIISE [NOG_Y222_W217G]  0.868
22. KNSFKYFMSDD [ATRX_Y203_C200S_YF]  0.856
23. TEFSQYMRRKN [MAX_Y73_I71S_YF]  0.76
24. FADIAYNFRHG [PAH_Y166_YF]  0.67
25. LNPLIYTLKNA [OR4C46_Y285]  0.602
26. ERKQTYGSCRK [LACTB_Y473]  0.518
27. SKNSKYNAEST [PSEN1_Y315]  0.482
28. GNLQENLTRHV [TGFBR2_Y336_Y336N]  0.461
29. TKDTFHKQPMF [GBA_Y451_Y451H]  0.454
